Substrate: [H][C@]12CC=C3[C@]4([H])CC(C)(C)CC[C@]4(C(=O)O[C@@H]4O[C@H](CO)[C@H](O)[C@H](O)[C@H]4O)CC[C@@]3(C)[C@]1(C)CC[C@@]1([H])C(C)(C)[C@@H](OC(=O)CN3CCN(c4cc(O/N=[N+](/[O-])N(C)CCO)c([N+](=O)[O-])cc4[N+](=O)[O-])CC3)CC[C@]21C
Assay: Activity at GSTpi (unknown origin) by Michaelis-Menten equation
Assay type: ADME, Homo sapiens

B1: Glutathione S-transferase P (Homo sapiens) (protein)
chain: MPPYTVVYFPVRGRCAALRMLLADQGQSWKEEVVTVETWQEGSLKASCLYGQLPKFQDGDLTLYQSNTILRHLGRTLGLYGKDQQEAALVDMVNDGVEDLRCKYISLIYTNYEAGKDDYVKALPGQLKPFETLLSQNQGGKTFIVGDQISFADYNLLDLLLIHEVLAPGCLDAFPLLSAYVGRLSARPKLKAFLASPEYVNLPINGNGKQ
- Km: 342 µM
- Vmax: 15.1 µmol/min
- kcat: 6.95 s⁻¹
- kcat/Km: 20100 M⁻¹ s⁻¹

From ChEMBL document CHEMBL2396531, “Hybrid molecule from O2-(2,4-dinitrophenyl)diazeniumdiolate and oleanolic acid: a glutathione S-transferase π-activated nitric oxide prodrug with selective anti-human hepatocellular carcinoma activity and improved stability” (J Med Chem, 2013)
